Assay [1] has as its target full-length PRC1 (Protein Regulator of Cytokinesis-1) (UniProt O43663). The assay is described as follows: BLI.
The target in the next assay is PRC1(1-486) (UniProt O43663). The assay is described as follows: BLI.
For assay [2], the target named is microtubules polymerised from tubulin. The assay is described as follows: TIRF microscopy, GFP intensity on immobilised microtubules.
Sequence of microtubules polymerised from tubulin (P68363 whole entry, chain 1 of 2): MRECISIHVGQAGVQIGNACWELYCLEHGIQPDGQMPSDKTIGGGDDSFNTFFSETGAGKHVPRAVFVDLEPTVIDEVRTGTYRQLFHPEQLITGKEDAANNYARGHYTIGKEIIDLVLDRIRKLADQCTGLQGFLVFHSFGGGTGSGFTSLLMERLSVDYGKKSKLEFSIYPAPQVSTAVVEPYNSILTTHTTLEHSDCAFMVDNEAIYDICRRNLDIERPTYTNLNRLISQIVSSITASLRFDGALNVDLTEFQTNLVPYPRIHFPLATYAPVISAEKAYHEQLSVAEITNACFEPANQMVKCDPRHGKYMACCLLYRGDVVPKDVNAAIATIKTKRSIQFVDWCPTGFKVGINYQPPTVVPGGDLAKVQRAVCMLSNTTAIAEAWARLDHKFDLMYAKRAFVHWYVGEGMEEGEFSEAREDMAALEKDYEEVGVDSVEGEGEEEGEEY
Sequence of microtubules polymerised from tubulin (A8K068 whole entry, chain 2 of 2, further chain): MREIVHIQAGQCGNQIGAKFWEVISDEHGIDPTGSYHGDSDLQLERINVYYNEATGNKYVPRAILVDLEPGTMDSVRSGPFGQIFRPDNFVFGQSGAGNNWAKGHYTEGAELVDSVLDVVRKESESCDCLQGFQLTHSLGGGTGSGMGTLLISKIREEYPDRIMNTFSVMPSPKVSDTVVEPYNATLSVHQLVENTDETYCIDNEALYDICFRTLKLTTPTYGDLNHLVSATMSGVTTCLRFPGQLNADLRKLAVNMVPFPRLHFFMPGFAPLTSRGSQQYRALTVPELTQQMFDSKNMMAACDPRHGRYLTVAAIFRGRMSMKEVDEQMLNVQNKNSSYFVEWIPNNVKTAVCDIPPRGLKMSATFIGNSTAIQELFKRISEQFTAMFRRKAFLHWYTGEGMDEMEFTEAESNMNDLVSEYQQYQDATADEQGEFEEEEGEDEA

Sequence of PRC1(1-486) (O43663 1-486): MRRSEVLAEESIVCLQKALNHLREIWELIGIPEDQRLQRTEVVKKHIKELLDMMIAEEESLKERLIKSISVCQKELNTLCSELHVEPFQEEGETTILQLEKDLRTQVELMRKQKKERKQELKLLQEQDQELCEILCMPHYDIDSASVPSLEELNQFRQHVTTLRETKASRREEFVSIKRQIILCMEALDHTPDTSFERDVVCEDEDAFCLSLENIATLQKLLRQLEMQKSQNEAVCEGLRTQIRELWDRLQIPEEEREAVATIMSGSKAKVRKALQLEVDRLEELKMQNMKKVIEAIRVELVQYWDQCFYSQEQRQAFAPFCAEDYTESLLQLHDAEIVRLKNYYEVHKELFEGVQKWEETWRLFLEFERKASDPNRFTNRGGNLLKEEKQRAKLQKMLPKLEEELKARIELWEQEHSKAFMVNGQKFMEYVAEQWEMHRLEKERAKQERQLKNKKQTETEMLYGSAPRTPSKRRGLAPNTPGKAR
Sequence of full-length PRC1 (Protein Regulator of Cytokinesis-1) (O43663 whole entry): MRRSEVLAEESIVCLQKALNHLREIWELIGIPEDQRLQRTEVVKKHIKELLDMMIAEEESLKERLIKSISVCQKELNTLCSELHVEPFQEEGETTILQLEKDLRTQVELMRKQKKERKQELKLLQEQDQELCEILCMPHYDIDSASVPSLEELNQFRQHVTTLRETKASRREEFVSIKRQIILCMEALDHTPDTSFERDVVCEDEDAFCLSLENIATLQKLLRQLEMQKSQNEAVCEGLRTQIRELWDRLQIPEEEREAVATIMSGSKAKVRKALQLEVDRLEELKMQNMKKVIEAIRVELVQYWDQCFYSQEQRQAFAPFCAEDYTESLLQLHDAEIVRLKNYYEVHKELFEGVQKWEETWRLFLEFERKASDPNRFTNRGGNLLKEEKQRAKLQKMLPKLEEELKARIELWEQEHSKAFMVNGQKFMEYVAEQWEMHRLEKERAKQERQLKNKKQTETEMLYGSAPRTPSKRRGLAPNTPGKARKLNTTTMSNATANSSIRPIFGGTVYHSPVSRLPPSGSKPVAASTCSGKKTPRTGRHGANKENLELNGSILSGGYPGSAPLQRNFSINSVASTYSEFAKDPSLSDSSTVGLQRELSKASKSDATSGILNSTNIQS

Consider “CLASP1(654-1471)-GFP (domain or fragment)”, for which the Kd came out at 1190 nM in assay [1] and 1040 nM in the assay with PRC1(1-486).

In assay [2], “full-length CLASP1-GFP (natural protein)” registered a GFP intensity per pixel at 8 nM of 26.9, a GFP intensity per pixel at 40 nM of 95.3, a GFP intensity per pixel at 60 nM of 109 and a GFP intensity per pixel at 80 nM of 400. In assay [2], this substance had a GFP intensity per pixel at 160 nM of 398, a GFP intensity per pixel at 400 nM of 754 and a GFP intensity per pixel at 800 nM of 854.

(Values after article PMC8387365.)
